The series concerns the molecule itself. The series is described as follows: in vitro fibril formation (negative-stain TEM, with ThT fluorescence, Congo red absorption and ATR-FTIR of the fibrils); 80 µM protein in 50 mM Tris buffer (pH 8.0), 7 days at 37 °C, 300 rpm; self-assembly into amyloid-like fibrils.

Results on one protein are retold here after paper PMC5522423, “Influence of C-terminal truncation of murine Serum amyloid A on fibril structure” (Scientific Reports, 2017).

B1: full-length murine serum amyloid A 1.1, SAA(1–103) (natural protein, mouse, UniProt P05367 20-122, looked up)
chain: GFFSFIGEAFQGAGDMWRAYTDMKEAGWKDGDKYFHARGNYDAAQRGPGGVWAAEKISDARESFQEFFGRGHEDTMADQEANRHGRSGKDPNYYRPPGLPAKY
notes: Serum amyloid A 1.1 (SAA1.1), mouse, 103 residues; also called murine SAA1.1; mSAA; source: E. coli RV308 (pMal-c2X vector), purified as described previously, lyophilized
Turning to B1, the binding result is “binds”.
